From publication doi:10.1101/2025.05.23.655772, “A Proteolytic Switch: USP5 controls SDE2 function via UBL-directed cleavage” (bioRxiv, 2025)

B3: ubiquitin-specific protease 5, wild type (enzyme, human, UniProt P45974 1-858, looked up)
chain: MAELSEEALLSVLPTIRVPKAGDRVHKDECAFSFDTPESEGGLYICMNTFLGFGKQYVERHFNKTGQRVYLHLRRTRRPKEEDPATGTGDPPRKKPTRLAIGVEGGFDLSEEKFELDEDVKIVILPDYLEIARDGLGGLPDIVRDRVTSAVEALLSADSASRKQEVQAWDGEVRQVSKHAFSLKQLDNPARIPPCGWKCSKCDMRENLWLNLTDGSILCGRRYFDGSGGNNHAVEHYRETGYPLAVKLGTITPDGADVYSYDEDDMVLDPSLAEHLSHFGIDMLKMQKTDKTMTELEIDMNQRIGEWELIQESGVPLKPLFGPGYTGIRNLGNSCYLNSVVQVLFSIPDFQRKYVDKLEKIFQNAPTDPTQDFSTQVAKLGHGLLSGEYSKPVPESGDGERVPEQKEVQDGIAPRMFKALIGKGHPEFSTNRQQDAQEFFLHLINMVERNCRSSENPNEVFRFLVEEKIKCLATEKVKYTQRVDYIMQLPVPMDAALNKEELLEYEEKKRQAEEEKMALPELVRAQVPFSSCLEAYGAPEQVDDFWSTALQAKSVAVKTTRFASFPDYLVIQIKKFTFGLDWVPKKLDVSIEMPEELDISQLRGTGLQPGEEELPDIAPPLVTPDEPKGSLGFYGNEDEDSFCSPHFSSPTSPMLDESVIIQLVEMGFPMDACRKAVYYTGNSGAEAAMNWVMSHMDDPDFANPLILPGSSGPGSTSAAADPPPEDCVTTIVSMGFSRDQALKALRATNNSLERAVDWIFSHIDDLDAEAAMDISEGRSAADSISESVPVGPKVRDGPGKYQLFAFISHMGTSTMCGHYVCHIKKEGRWVIYNDQKVCASEKPPKDLGYIYFYQRVAS
notes: ubiquitin-specific protease 5 (USP5), human; No removal of the His tag is described; also called USP5; USP5^WT; source: E. coli BL21 (DE3), purified (Ni-NTA, SEC)
B4: catalytically inactive USP5 C335A (enzyme, human, UniProt P45974 1-858, looked up)
chain: MAELSEEALLSVLPTIRVPKAGDRVHKDECAFSFDTPESEGGLYICMNTFLGFGKQYVERHFNKTGQRVYLHLRRTRRPKEEDPATGTGDPPRKKPTRLAIGVEGGFDLSEEKFELDEDVKIVILPDYLEIARDGLGGLPDIVRDRVTSAVEALLSADSASRKQEVQAWDGEVRQVSKHAFSLKQLDNPARIPPCGWKCSKCDMRENLWLNLTDGSILCGRRYFDGSGGNNHAVEHYRETGYPLAVKLGTITPDGADVYSYDEDDMVLDPSLAEHLSHFGIDMLKMQKTDKTMTELEIDMNQRIGEWELIQESGVPLKPLFGPGYTGIRNLGNSAYLNSVVQVLFSIPDFQRKYVDKLEKIFQNAPTDPTQDFSTQVAKLGHGLLSGEYSKPVPESGDGERVPEQKEVQDGIAPRMFKALIGKGHPEFSTNRQQDAQEFFLHLINMVERNCRSSENPNEVFRFLVEEKIKCLATEKVKYTQRVDYIMQLPVPMDAALNKEELLEYEEKKRQAEEEKMALPELVRAQVPFSSCLEAYGAPEQVDDFWSTALQAKSVAVKTTRFASFPDYLVIQIKKFTFGLDWVPKKLDVSIEMPEELDISQLRGTGLQPGEEELPDIAPPLVTPDEPKGSLGFYGNEDEDSFCSPHFSSPTSPMLDESVIIQLVEMGFPMDACRKAVYYTGNSGAEAAMNWVMSHMDDPDFANPLILPGSSGPGSTSAAADPPPEDCVTTIVSMGFSRDQALKALRATNNSLERAVDWIFSHIDDLDAEAAMDISEGRSAADSISESVPVGPKVRDGPGKYQLFAFISHMGTSTMCGHYVCHIKKEGRWVIYNDQKVCASEKPPKDLGYIYFYQRVAS
notes: ubiquitin-specific protease 5 (USP5), human, catalytic cysteine mutated; The His tag is used for detection in the TR-FRET assay; also called His-USP5^C335A; source: E. coli BL21 (DE3), purified (Ni-NTA, SEC)

Columns and labels:
Conditions in all cases: both partners purified
[1] = biological target: B3; assay: ITC; ITC200 at 298 K; 50 mM HEPES, 100 mM NaCl, 1 mM TCEP, pH 7.5; SDE2 construct or monoubiquitin titrated into USP5 (10-12 µM); duplicate
[2] = biological target: B4; assay: as above
[3] = biological target: B3; assay: thermal shift assay; USP5^WT incubated with ABP for 1 h at 37 °C in PBS, 1 mM DTT, then SYPRO orange, 10-95 °C; Tm of the USP5-ABP covalent complex; triplicate
monoubiquitin = biological target: T1, monoubiquitin (UniProt P0CG48 1-76); assay: ITC; ITC200 at 298 K; 50 mM HEPES, 100 mM NaCl, 1 mM TCEP, pH 7.5; SDE2 construct or monoubiquitin titrated into USP5 (10-12 µM); duplicate
T1 construct: ubiquitin, the mature monomer

B1: SDE2 N-terminal ubiquitin-like domain, SDE2UBL(1-77) (domain or fragment, human, UniProt Q6IQ49 1-77, looked up)
chain: MAEAAALVWIRGPGFGCKAVRCASGRCTVRDFIHRHCQDQNVPVENFFVKCNGALINTSDTVQHGAVYSLEPRLCGG
notes: Silencing Defective 2 (SDE2), human, residues 1-77 (ubiquitin-like domain ending in the Gly-Gly motif); source: E. coli BL21 (DE3), purified (Ni-NTA, SUMO protease cleavage, SEC); not shown: His, N-terminal, cleaved; SUMO, N-terminal, cleaved
Work on B1 yielded a Kd [1] of 26.6 ± 5 µM and a Kd [2] of 1.67 µM.

B2: HA-SDE2UBL-PA, activity-based probe derived from SDE2UBL (domain or fragment, human, UniProt Q6IQ49 1-76, looked up)
chain: MAEAAALVWIRGPGFGCKAVRCASGRCTVRDFIHRHCQDQNVPVENFFVKCNGALINTSDTVQHGAVYSLEPRLCG
modifications: Gly77 replaced with a propargyl electrophilic warhead (C-terminal propargylamine)
notes: Silencing Defective 2 (SDE2), human, residues 1-76 (SDE2UBL with Gly77 truncated); Forms a covalent adduct with the catalytic cysteine of reactive enzymes; also called HA-SDE2UBL-ABP; SDE2UBL-ABP; not shown: HA, N-terminal, kept
B2 was tested, and the “Tm of the covalent complex” value [3] was 56.4 ± 0.2 °C.

B3: binds (monoubiquitin).

B4: binds (monoubiquitin).
